In test [1] the target is T1, DENV3 VLP (strain Sri Lanka D3/H/IMTSSA-SRI/2000/1266) (Dengue virus serotype 3 strain Sri …).
T1 construct: also called dengue-3 virus like particle
Description: microsphere immunoassay, DENV3 VLP-coupled microspheres, 120 min incubation.

The target of test [2] is T2, DENV4 VLP (strain Dominica/814669/1981) (Dengue virus serotype 4 strain …, UniProt P09866 114-732).
T2 construct: also called dengue-4 virus like particle
Description: microsphere immunoassay, DENV4 VLP-coupled microspheres, 120 min incubation.

Test [3] addresses T3, ZIKV VLP (zika virus like particle, isolate Z1106033) (Zika virus isolate Z1106033 (Suriname, …, UniProt A0A024B7W1 123-794)).
T3 construct: also called zika VLP; ZIKV VLPs

Test [4] deals with T4, DENV1 VLP (strain Puerto Rico/US/BID-V853/1998) (Dengue virus serotype 1 strain Puerto …).
T4 construct: also called dengue-1 virus like particle
Description: microsphere immunoassay, DENV1 VLP-coupled microspheres, 120 min incubation.

Test [5] concerns the target T5, DENV2 VLP (strain Thailand/16681/84) (Dengue virus serotype 2 strain …).
T5 construct: also called dengue-2 virus like particle
Description: microsphere immunoassay, DENV2 VLP-coupled microspheres, 120 min incubation.

Test [6] concerns the target T3, ZIKV VLP (zika virus like particle, …). This is another data set of the same source.
For test [7], the target named is T2, DENV4 VLP (strain Dominica/814669/1981). Description: microsphere immunoassay, DENV4 VLP-coupled microspheres.
Test [8] addresses T1, DENV3 VLP (strain Sri Lanka …). Description: microsphere immunoassay, DENV3 VLP-coupled microspheres.
Test [9] concerns the target T4, DENV1 VLP (strain Puerto …). Description: microsphere immunoassay, DENV1 VLP-coupled microspheres.
For test [10], the target named is T3, ZIKV VLP (zika virus like particle, …). This is another data set of the same source.
Test [11] deals with T5, DENV2 VLP (strain Thailand/16681/84). Description: microsphere immunoassay, DENV2 VLP-coupled microspheres.
Test [12] addresses rZIKV-EDIII-1 (recombinant 6xHis-SUMO-tagged ZIKV EDIII) (Zika virus strain H/PF/2013, UniProt A0A024B7W1 589-697). Description: Bio-layer interferometry (Octet). In general terms: In BLI a coated tip is dipped into the sample, and binding shifts an interference pattern.

Changes are numbered by the printed parent chain. Read-outs that look alike come from different tables or passages of the source.

B1: Anti-ZIKV #9 (Clone 181-4) (antibody)
heavy: QAQLEESGGDLVKPEGSLTLTCTASGFSFTDRHYMCWVRQAPGKGLEWIACVYPGSSGSTYYASWARGRFTISKTSSTTVTLRMTSLTAADTATYFCARSSYPDSSGYSYGMDLWGPGTLVTVSSGQPKAPSVFPLAPCCGDTPSSTVTLGCLVKGYLPEPVTVTWNSGTLTNGVRTFPSVRQSSGLYSLSSVVSVTSSSQPVTCNVAHPATNTKVDKTVAPSTCSKPTCPPPELLGGPSVFIFPPKPKDTLMISRTPEVTCVVVDVSQDDPEVQFTWYINNEQVRTARPPLREQQFNSTIRVVSTLPIAHQDWLRGKEFKCKVHNKALPAPIEKTISKARGQPLEPKVYTMGPPREELSSRSVSLTCMINGFYPSDISVEWEKNGKAEDNYKTTPAVLDSDGSYFLYSKLSVPTSEWQRGDVFTCSVMHEALHNHYTQKSISRSPGK
light: DIVMTQTPASVEAAVGGTVTIKCQASQNINSNLAWYQQKPGQRPKFLMYLTSKLASGVPSRFRGSGSGTQFTLTISDLECADAATYYCQTYYDISNYGYAFGGGTEVVVKGDPVAPTVLIFPPAADQVATGTVTIVCVANKYFPDVTVTWEVDGTTQTTGIENSKTPQNSADCTYNLSSTLTLTSTQYNSHKEYTCKVTQGTTSVVQSFNRGDC
By EC25 is commonly meant the point of the concentration-response curve where the effect stands at 25%. Read a high EC25 as weaker potency. In general, EC50 refers to the concentration at which the effect is half-maximal. Higher therefore signals a need for much substance. With B1, the binding result in [1], in test [2], in test [4] and in test [5] was “no binding (tested: 0.001 to 20 µg/mL)” each time. The EC25 in test [3] was found to be 0.0059 µg/mL. The molecule further came in with an EC50 in test [3] of 0.0156 µg/mL.

B2: Anti-ZIKV #10 (Clone 329-2) (antibody)
heavy: B1 heavy
light: B1 light
For the molecule B2, the binding result in [1], in test [2], in test [4] and in test [5] was “no binding (tested: 0.001 to 20 µg/mL)” in each case. Further, in test [3], the EC25 turned out to be 0.0043 µg/mL. In test [3], this molecule showed an EC50 of 0.0145 µg/mL.

B3: Anti-ZIKV #2 (Clone 242-3) (antibody, V domains shown)
VH: QAQLEESGGDLVKPEGSLTLTCTASGFSFTDRHYMCWIRQAPGKGLEWIACVYPGSSGSTYYASWARGRFTISKTSSTTVTLRMTSLTAADTATYFCARSSYPDSSGYSYGMDLWGPGTLVTVSS
VL: DIVMTQTPASVEAAVGGTVTIKCQASQNINSNLAWYQQKPGQRPKFLMYLTSKLASGVPSRFRGSGSGTQFTLTISDLECADAATYYCQTYYDISNYGYAFGGGTEVVVKG
In the case of B3, the EC50 worked out at 0.14 µg/mL in test [6], 0.008 µg/mL in [3] and 0.044 µg/mL in [10]. For the same molecule, the binding result in [7], in test [8], in [9] and in [11] was “no binding (tested: 0.001 to 20 µg/mL)” each time. In test [3], this molecule displayed an EC25 of 0.0024 µg/mL.

B4: Anti-ZIKV #8 (Clone 260-2) (antibody)
heavy: B1 heavy with S124P
light: B1 light
Consider B4, for which the binding result in test [1], in test [2], in test [4] and in [5] was “no binding (tested: 0.001 to 20 µg/mL)” in each case. The same molecule registered an EC25 in test [3] of 0.0075 µg/mL. In test [3], this molecule displayed an EC50 of 0.0252 µg/mL.

B5: Anti-ZIKV #3 (Clone 270-12) (antibody, V domains shown)
VH: B3 VH with I38V
VL: B3 VL with N28D
B5: the values for the 50% effective concentration (EC50) in [6], in [3] and in test [10] were 0.181 µg/mL, 0.0144 µg/mL and 0.061 µg/mL, respectively. The binding result in test [7], in [8], in test [9] and in test [11] was “no binding (tested: 0.001 to 20 µg/mL)” in each case. Also, in [3], it took 0.0045 µg/mL to reach the 25% level (EC25).

B6: Anti-ZIKV #5 (Clone 306-2) (antibody, V domains shown)
VH: QSLEESGGDLVKPGASLTLTCTASGFDFSDRYYMCWVRQAPGKGLEWIGCIYVGSGDTYYASWAKGRFTISRTSSTTVTLQMTRLTAADTATYFCARHPGTYFTLWGPGTLVTVSS
VL: DVVMTQTPSSVSAAVGGTVTINCQASQNIVNNLAWYQQRPGQPPKLLIYDTSTLASGVPSRFKGSGSGTEFTLTISDLECADAATYYCQTYYYYNKIINGFGGGTEVVVKG
Regarding B6, the figures for the EC50 in [6], in [3] and in test [10] were 0.256 µg/mL, 0.0158 µg/mL and 0.066 µg/mL, respectively. Besides, the binding result in [7], in test [8], in [9] and in [11] was “no binding (tested: 0.001 to 20 µg/mL)” throughout. It took 0.0047 µg/mL to reach the 25% level in test [3] (EC25).

B7: Anti-ZIKV #6 (IgG2c kappa, Clone ZV-67) (antibody, V domains shown)
VH: QAQLQQSGTGLARPGASVKLSCKASGYTFTSYGISWVTQRAGQGLEWIGVIYPRSGNTYYNEKFRGKATLTADKSSSSAYMELRGLTAEDSAVYFCARENYGSVYWGQGTTLTVSS
VL: DIVMTQSQKFMSTSVGDRVSITCKASQNVGTAVAWYQQKPGQSPKLLIYSASNRYTGVPDRFTGSGSGTDFTLTISNMQSEDLADYFCQQFSSYPYTFGGGTKLEIK
B7: the results for the EC50 in [6], in test [3] and in [10] were 0.677 µg/mL, 0.0273 µg/mL and 0.134 µg/mL, respectively. Also, the binding result in [7], in test [8], in test [9] and in [11] was “no binding (tested: 0.001 to 20 µg/mL)” throughout. Also, in test [3], the EC25 was determined as 0.0081 µg/mL.

B8: Anti-ZIKV #11 (Clone 11-3) (antibody, V domains shown)
VH: QEQLVESGGGLVQPEGSLTITCTGSGFSFSSRFYMCWVRQAPGKGLEWIACIYGGSSGSTYYASWAKGRFTISKTSSTTVTLQISSLTAADTATYFCARGGSTAAAGFNLWGPGTLLTVSS
VL: DVVMTQTPASVSATVGGTVTIKCQASEDIYNLLAWYQQKPGQPPKLLIYYASTLASGVPSRFKGSGSGTEFTLTISDLECADAATYYCQCNDYGGTYVPNAFGGGTEVVVKG
As to B8, the binding result in test [1], in test [2], in test [4] and in test [5] was “no binding (tested: 0.001 to 20 µg/mL)” throughout. Besides, the EC25 in [3] amounted to 0.0032 µg/mL. In [3], this molecule registered an EC50 of 0.0105 µg/mL.

B9: Anti-ZIKV #7 (IgG2a kappa, Clone ZKA-64) (antibody, V domains shown)
VH: QVQLVQSGAEVKKPGASVKVSCKASGYTFTGYHIDWVRQARGQGLEWMGRINPNSGGTNYAQKFQGRVTMTRDTSISTAYMQLSRLRSDDSAVYYCARMSSSIWGFDHWGQGTLVTVSS
VL: EIVMTQSPATLSVSPGERATLSCRASQSVLINLAWYQQKPGQAPRLLIYGASSRATGIPARFSGSGSGTEFTLTISSLQSEDFAVYYCQQYNDWPPITFGQGTRLEIK
As to B9, the EC50 in test [6] was 1.18 µg/mL; in test [3] it was 0.101 µg/mL; in test [10] it was 0.423 µg/mL. The binding result in test [7], in test [8], in test [9] and in test [11] was “no binding (tested: 0.001 to 20 µg/mL)” in each case. The same molecule registered an EC25 in test [3] of 0.0296 µg/mL.

B10: Anti-ZIKV #4 (Clone 289-3) (antibody, V domains shown)
VH: QEELEESGGDLVKPGASLTLTCKASGFSFSSGAYICWVRQAPGKGPEWIACIYTGDGRTYYANWAKRRFTISSSSSTTVALEMPSLTDADTATYFCARAIAVGAGYGVGNYFTLWGPGTLVTVSS
VL: DIVMTQTPSSVSAAVGGTVTINCHASENIYGYLSWYQQKPGQPPKLLIYKASTLASGVPSRFKGSGAGTQFTLTITALECADAATYYCQSYYTSSSNADGSENAFGGGTEVVVEG
As to B10, the binding result in test [7] was “no binding (tested: 0.001 to 20 µg/mL)”; in [8], “no binding (tested: 0.001 to 20 µg/mL)”; in test [9] it was “no binding (tested: 0.001 to 20 µg/mL)”; in test [12], “binds”; in [11], “no binding (tested: 0.001 to 20 µg/mL)”.
